Test results from patent publication US8722052B2, “Vaccinia virus protein A46 peptide and use thereof” (priority 2008, dated 2014).
Ends that are not written are not given here.

Legend:
TLR4 [1] = biological target: T1, TLR4 (Mus musculus, UniProt Q9QUK6); test: LPS-induced TNFα in immortalised murine macrophages, ELISA; assay type: cell-based; set-up: endogenous in cells; immortalised murine bone-marrow-derived macrophages; conditions: peptide 1, 3, 6.25 and 12.5 μM, 20 ng/ml LPS, 6 h
T1 sequence (Q9QUK6 26-835): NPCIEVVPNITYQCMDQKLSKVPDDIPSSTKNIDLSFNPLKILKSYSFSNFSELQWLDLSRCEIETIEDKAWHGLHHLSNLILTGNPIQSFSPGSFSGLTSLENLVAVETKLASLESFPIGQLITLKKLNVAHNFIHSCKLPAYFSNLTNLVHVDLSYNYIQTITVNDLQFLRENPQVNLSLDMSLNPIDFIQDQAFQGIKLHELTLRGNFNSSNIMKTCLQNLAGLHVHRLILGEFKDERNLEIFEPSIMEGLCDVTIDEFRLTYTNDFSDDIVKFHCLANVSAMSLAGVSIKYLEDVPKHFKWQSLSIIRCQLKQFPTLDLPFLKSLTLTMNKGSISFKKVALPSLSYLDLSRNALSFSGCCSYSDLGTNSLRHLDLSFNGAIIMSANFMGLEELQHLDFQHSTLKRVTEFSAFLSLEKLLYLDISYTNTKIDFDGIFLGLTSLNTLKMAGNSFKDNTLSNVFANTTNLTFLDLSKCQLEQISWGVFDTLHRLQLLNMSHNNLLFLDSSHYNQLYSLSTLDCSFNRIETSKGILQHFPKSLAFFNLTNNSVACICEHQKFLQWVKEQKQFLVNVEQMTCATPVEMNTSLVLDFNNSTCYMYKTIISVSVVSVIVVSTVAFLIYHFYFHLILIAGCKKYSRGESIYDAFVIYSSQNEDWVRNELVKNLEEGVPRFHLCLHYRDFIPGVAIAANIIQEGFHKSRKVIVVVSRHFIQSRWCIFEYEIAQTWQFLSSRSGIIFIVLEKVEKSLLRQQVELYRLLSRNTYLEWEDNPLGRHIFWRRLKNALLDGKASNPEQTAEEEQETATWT
T1 sequence (Q9JHF9 19-160 partner): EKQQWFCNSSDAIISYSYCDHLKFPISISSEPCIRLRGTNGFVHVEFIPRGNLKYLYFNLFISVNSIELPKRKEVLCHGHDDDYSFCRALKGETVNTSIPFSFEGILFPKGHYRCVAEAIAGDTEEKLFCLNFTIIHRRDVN

TLR3 = biological target: T2, TLR3 (Homo sapiens, UniProt O15455); test: poly(I:C)-induced NFκB / ISRE luciferase reporter assay in HEK293_TLR3 cells; assay type: cell-based; conditions: peptide 1, 5 or 25 μM, 25 μg/ml Poly(I:C), 6 h
T2 construct: expressed in transfected cells
Method: FIGS. 11A and B are bar charts showing the effect of A464 and scrambled A464 (ConA464) on poly(I:C)-induced TLR3 signalling in HEK293 cells. HEK293_TLR3 cells were seeded in 96 well plates (1.5×10^5 cells/ml) 24 hours before transfection with the plasmid DNA. Cells were transfected with 60 ng of either ISRE-Luciferase (A) or NFκB-Luciferase (B) and 20 ng of TK-Renilla reporter gene plasmids. The total volume of plasmid DNA transfected into the cells was made up to 230 ng by adding pcDNA.
Scrambled A464 (ConA464) (SEQ ID NO. 32) and A464 (SEQ ID NO. 20) peptides were added to the cells at a concentration of 2, 5 or 10 μM the next day and cells were stimulated with 25 μg/ml poly(I:C) 1 hour after treatment with the peptide. Cells were harvested and reporter gene assays performed 6 hr after stimulation with the agonist. No peptides were added to the control wells (black bars). Data is representative of at least three experiments each performed in triplicate. Data are expressed as mean fold induction±s.d. relative to control levels;
(§1) FIGS. 20A and B are bar charts showing the effect of shortened A464 peptides with deletions of N- and C-terminal amino acids on TLR4- and TLR3-induced NFκB activation in HEK293 cells. HEK293_TLR4 (A) and HEK293_TLR3 (B) cells were seeded in 96 well plates (1.5×10^5 cells/ml) 24 hours before transfection with the plasmid DNA. Cells were transfected with 60 ng NFκB-Luciferase and 20 ng of TK-Renilla reporter genes, as in FIG. 11. A464N-2 (SEQ ID NO. 41) and A464C-3 (SEQ ID NO. 42) peptides were added to the cells at a concentration of 1, 5 or 25 μM the next day and cells were stimulated with either 10 ng/ml LPS (A) or 25 μg/ml Poly(I:C) (B) 1 hour after treatment with peptides. Cells were harvested and assayed for NFκB activation by reporter gene assay 6 hours after stimulation with the agonists. No peptides were added to the control wells (black bars). Data is representative of three experiments each performed in triplicate and is expressed as mean fold induction±s.d. relative to control levels;
HEK293 cells were transfected using GeneJuice® a proprietary non-toxic transfection reagent. 200 μl/well cells at a density of 1×10^5 cells/ml were seeded the day before transfection. 0.8 μl of GeneJuice was mixed with 9.2 μl of serum-free DMEM (SFM) per transfection and incubated for 5 min at room temperature before adding the appropriate amount of the plasmid DNA. The GeneJuice/SFM/DNA mixture was then incubated at room temperature for 15 min before adding to the cells. 10 μl per well of the GeneJuice/SMF/DNA mixture was added to the cells in triplicate and the cells were allowed to recover for 18-20 hours before stimulation. […]

TLR4 [2] = test: LPS-induced NFκB reporter assay in HEK293_TLR4 cells; assay type: cell-based, human; conditions: peptide 1, 5 or 25 μM 1 h before 10 ng/ml LPS, 6 h
Method: as §1
FIGS. 24A and B are bar charts showing the effect of A464 on ligand-independent TLR4 signalling in HEK293 cells. HEK293_TLR4 cells were seeded in 96 well plate (1.5×10^5 cells/ml) 24 hours before transfection with NFκB-luciferase and TK-Renilla reporter gene plasmids. NFκB activation was stimulated by transfecting either 50 or 100 ng of CD4/TLR4-encoding plasmid or by stimulating with 10 ng/ml LPS. The total amount of plasmid DNA transfected into the cells was made up to 230ng by adding pcDNA. A464 (SEQ ID NO. 20) was added to the cells at a concentration of 5 or 25 μM 2 hours (A) or 9 hours (B) after the transfection or LPS-stimulation. Cells were harvested and assayed for NFκB activation by reporter gene assay 24 hours post-transfection. No peptides were added to the control wells (black bars). Data is representative of two experiments, each performed in triplicate and is expressed as mean fold induction±s.d. relative to control levels;
HEK293 cells were transfected using GeneJuice® a proprietary non-toxic transfection reagent. […]

TLR4 [3] = test: LPS-induced TNFα in PMA-differentiated U937 cells, ELISA; assay type: cell-based, human; conditions: peptide 5 or 20 μM 1 h before 100 ng/ml LPS, 24 h
Method: FIGS. 3A and B are bar charts showing the effect of peptides derived from A46 on LPS-induced TNFα in human U937 cells. Cells were differentiated with 200 nM PMA and seeded in 96 well plates (2×10^5 cells/ml) 24 hours before treatment. A46 peptides were added to the cells at a concentration of 5 or 20 μM 1 hour before stimulating with 100 ng/ml LPS. Supernatants were collected 24 hours after stimulation and assayed for TNFα by ELISA. No peptides were added into the control wells (black bars). (A) peptides A461-A467 (SEQ ID NO. 17 to 23). (B) peptides A468-A4614 (SEQ ID NO. 24 to 30) (excluding A4612 SEQ ID NO. 28). Data is representative of at least two experiments each performed in triplicate and is expressed as mean±s.d;
Cytokine and chemokine production from cells or mouse serum was measured by ELISA using Duoset kits from R&D systems, according to the manufacturer's instructions.
LPS is a component of a cell wall of Gram-negative bacteria which is recognised by a homodimer of TLR4 and signals to NFκB via both a MyD88- and TRIF-dependent pathway (O'Neill and Bowie, 2007). In order to examine the effect of the peptides on TLR4-dependent gene induction in human cells, the human monocytic lymphoma cell line U937 was used. U937 cells were differentiated into macrophages by treatment with 200 nM PMA for 24 hours before any further manipulations. […]

PBMCs = test: MTT cell viability assay, PBMC; assay type: cell-based, human; conditions: peptide 1, 5 and 25 μM
Method: FIGS. 13A and B are bar charts showing the effect of A467 and A464 on LPS-induced TNFα production and on cell viability in primary human cells. Peripheral blood mononuclear cells (PBMCs) were seeded in 96 well plates (1 ×10^6 cells/ml) 24 hours before treatment. A467 (SEQ ID NO. 23) and A464 (SEQ ID NO. 20) were added to the cells at 1, 5 and 25 μM 1 hour before stimulating with 10 ng/ml LPS. The peptides were added into the unstimulated control wells at 25 μM. Supernatants were collected 6 hours after stimulation and assayed for TNFα production by ELISA (A). The cells were assayed for viability by the MTT assay (B). No peptides were added to the control wells (black bars). Data is representative of at least three experiments each performed in triplicate and is expressed as mean±s.d;
Cell viability was measured by assessing mitochondrial function using an MTT (3-(4,5-Dimethylthiazol-2-yl)-2,5-diphenyltetrazolium bromide) assay. Cells were seeded into 96 well plates and treated with peptides and agonists as described above in relation to the Figs. Wells containing medium only served as a blank control. To terminate treatment of cells, medium was removed and the cells were washed once with PBS. […] MTT was then removed and 200 μl per well of dimethyl sulphoxide (DMSO) was added and cells incubated for 20 min at 37° C. in the dark, prior to absorbance being read at 595 nm on a spectrophotometer.

Sequence of TLR4 (O00206 24-839): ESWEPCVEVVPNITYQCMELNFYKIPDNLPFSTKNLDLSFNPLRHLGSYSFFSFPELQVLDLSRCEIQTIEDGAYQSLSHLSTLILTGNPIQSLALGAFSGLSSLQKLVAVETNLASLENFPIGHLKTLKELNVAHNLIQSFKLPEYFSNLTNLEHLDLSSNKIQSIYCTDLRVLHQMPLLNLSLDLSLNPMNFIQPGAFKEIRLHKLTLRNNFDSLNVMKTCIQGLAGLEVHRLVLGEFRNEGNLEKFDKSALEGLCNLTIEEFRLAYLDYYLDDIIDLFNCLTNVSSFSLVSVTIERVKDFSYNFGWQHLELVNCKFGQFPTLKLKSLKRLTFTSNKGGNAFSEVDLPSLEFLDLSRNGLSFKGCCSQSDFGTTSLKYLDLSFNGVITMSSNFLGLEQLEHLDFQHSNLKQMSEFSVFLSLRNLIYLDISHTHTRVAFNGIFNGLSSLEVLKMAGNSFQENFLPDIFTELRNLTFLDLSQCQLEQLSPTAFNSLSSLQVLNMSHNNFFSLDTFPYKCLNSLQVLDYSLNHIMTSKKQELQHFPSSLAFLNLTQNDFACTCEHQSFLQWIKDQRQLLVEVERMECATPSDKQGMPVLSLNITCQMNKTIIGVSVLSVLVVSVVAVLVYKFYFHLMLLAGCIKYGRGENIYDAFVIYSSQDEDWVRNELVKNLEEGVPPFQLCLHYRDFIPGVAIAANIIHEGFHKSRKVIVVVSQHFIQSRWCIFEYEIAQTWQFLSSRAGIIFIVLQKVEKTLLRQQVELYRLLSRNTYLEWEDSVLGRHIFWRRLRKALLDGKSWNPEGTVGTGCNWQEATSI
Sequence of TLR4 (Q9Y6Y9 17-160 partner limits assumed): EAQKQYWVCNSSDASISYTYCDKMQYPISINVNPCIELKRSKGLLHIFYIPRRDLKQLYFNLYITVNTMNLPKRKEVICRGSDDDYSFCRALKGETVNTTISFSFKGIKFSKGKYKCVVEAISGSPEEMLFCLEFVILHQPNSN

9R-FKLI (RRRRRRRRRFKLI) [Peptide 9R-FKLI]
inhibition of TLR4-induced murine TNFα by shorter versions of sA464N9R (TLR4 [1]): did not

9R-FKLIL (RRRRRRRRRFKLIL) [Peptide 9R-FKLIL]
inhibition of TLR4-induced murine TNFα by shorter versions of sA464N9R (TLR4 [1]): retained the ability to inhibit TLR4

9R-SFKLFL (RRRRRRRRRSFKLFL) [Peptide 9R-SFKLFL]
inhibition of TLR4-induced murine TNFα by shorter versions of sA464N9R (TLR4 [1]): did not

9R-SFKLI (RRRRRRRRRSFKLI) [Peptide 9R-SFKLI]
inhibition of TLR4-induced murine TNFα by shorter versions of sA464N9R (TLR4 [1]): did not

KYSFKLIL-9R (KYSFKLILRRRRRRRRR) [Peptide A464C-3]
inhibition of Poly(I:C)-induced NFκB activation (TLR3) by shortened peptides (TLR3): no inhibition of TLR3 signalling to NFκB up to 25 μM
inhibition of LPS-induced NFκB activation by shortened peptides (TLR4 [2]): inhibited LPS-induced NFκB activation completely at 1 μM

LILAEYIRHRNRRRRRRRRR [Peptide A465]
inhibition of LPS (TLR4)-induced TNFα production (TLR4 [3]): did not inhibit TLR4 responses

RNTISGNIYSARRRRRRRRR [Peptide A467]
toxicity (MTT) (PBMCs): not toxic

SFKLILAEY-9R (SFKLILAEYRRRRRRRRR) [Peptide A464N-2]
inhibition of Poly(I:C)-induced NFκB activation (TLR3) by shortened peptides (TLR3): no inhibition of TLR3 signalling to NFκB up to 25 μM
inhibition of LPS-induced NFκB activation by shortened peptides (TLR4 [2]): inhibited LPS-induced NFκB activation completely at 1 μM
